Data on 20 variants can be found in the supplement of paper PMC7125110.

B1: glmS ribozyme (parent)
chain: AUAAAAGCGCCAGAACUACAGAAAUGUAGUUGACGAGGAGGAGGUUUAUCGAAUUUUCGGCGGAUGCCUCCAAA

Settings in all cases: with glucosamine-6-phosphate
The variants in series [1] derive from B1. In words: kcat; higher = faster cleavage; RNA array. The gist of the method: (§1)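 Sequenced MiSeq chips were the platform: E. coli RNA polymerase transcribed barcoded ribozyme variants on them in situ, and a hybridised Cy3 probe tracked these at 37 °C. After glucosamine-6-phosphate (40 μM to 10 mM) in HEPES/KCl/Mg(OAc)2 buffer was flowed in, tiles were imaged over ~14 h. Signals normalised to baseline and to non-cleaving reference variants were reduced to per-tile medians and fit to one- or two-exponential decays to obtain kobs. kcat and KM were derived through weighted Michaelis–Menten fits across concentrations.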

Variants of B1 are the subject of series [2]. In words: KM; higher = weaker cofactor use; RNA array. Put shortly:
as §1

The variants in series [3] derive from B1. The series is described as follows: self-cleavage kobs at 640 uM GlcN6P; higher = faster cleavage; RNA array. The gist of the method: as §1
Series [4] covers variants of B1. In words: self-cleavage kobs at 2500 uM GlcN6P; higher = faster cleavage; RNA array. Put shortly:
as §1

Series [5] covers variants of B1. In words: self-cleavage kobs at 10000 uM GlcN6P; higher = faster cleavage; RNA array. The gist of the method: as §1
In series [6] the parent is B1. In words: self-cleavage kobs at 40 uM GlcN6P; higher = faster cleavage; RNA array. Put shortly: as §1
In series [7] the parent is B1. In words: self-cleavage kobs at 160 uM GlcN6P; higher = faster cleavage; RNA array. Put shortly: as §1

The term kcat denotes the maximal rate divided by the concentration of active sites. A word on the KM: it is the substrate concentration at which the rate is half of its maximum.

± gives the standard error. For part of these data: This sample holds only a part of the variants without activity.

Consider G7A U69A, for which the kcat in the series with glucosamine-6-phosphate [1] is 1.56e-05 ± 3.6e-06 s⁻¹.
For C16A G32U, the turnover number (kcat) in the series with glucosamine-6-phosphate [1] worked out at 0.000568 ± 9.6e-05 s⁻¹. In the series with glucosamine-6-phosphate [2], the KM worked out at 6.39 ± 1.5 mM. Besides, the “self-cleavage kobs at 640 uM GlcN6P” value in the series with glucosamine-6-phosphate [3] was found to be 5.63e-05 ± 1e-05 s⁻¹. For the same variant, in the series with glucosamine-6-phosphate [4], the “self-cleavage kobs at 2500 uM GlcN6P” value was 0.000143 ± 2.8e-05 s⁻¹. Also, in the series with glucosamine-6-phosphate [5], the “self-cleavage kobs at 10000 uM GlcN6P” value came out at 0.000363 ± 6.7e-05 s⁻¹.
Consider U46A G60A, for which the kcat in the series with glucosamine-6-phosphate [1] was < 1e-05 s⁻¹. The “self-cleavage kobs at 640 uM GlcN6P” value in the series with glucosamine-6-phosphate [3] was < 1e-05 s⁻¹.
Consider A14G G59U, for which the kcat in the series with glucosamine-6-phosphate [1] was 0.000386 ± 9.6e-05 s⁻¹. For the same variant, the KM with glucosamine-6-phosphate [2] is 9.33 ± 3.8 mM. The “self-cleavage kobs at 640 uM GlcN6P” value with glucosamine-6-phosphate [3] came to 1.71e-05 ± 8e-06 s⁻¹. Moreover, the “self-cleavage kobs at 2500 uM GlcN6P” value in the series with glucosamine-6-phosphate [4] came to 9.37e-05 ± 1.5e-05 s⁻¹. The “self-cleavage kobs at 10000 uM GlcN6P” value in the series with glucosamine-6-phosphate [5] was determined as 0.000196 ± 2.2e-05 s⁻¹.
For A33G C50A, the turnover number (kcat) with glucosamine-6-phosphate [1] came out at 1.1e-05 ± 2.3e-06 s⁻¹.
In the case of G60U C67A C68U, the turnover number (kcat) in the series with glucosamine-6-phosphate [1] is < 1e-05 s⁻¹. Further, the “self-cleavage kobs at 640 uM GlcN6P” value with glucosamine-6-phosphate [3] was < 1e-05 s⁻¹. The “self-cleavage kobs at 10000 uM GlcN6P” value with glucosamine-6-phosphate [5] was < 1e-05 s⁻¹.
For the variant C10U A14C, in the series with glucosamine-6-phosphate [1], the kcat was < 1e-05 s⁻¹. The “self-cleavage kobs at 40 uM GlcN6P” value with glucosamine-6-phosphate [6] was < 1e-05 s⁻¹.
For C61A C70G, the turnover number (kcat) in the series with glucosamine-6-phosphate [1] came out at 1.68e-05 ± 3.8e-06 s⁻¹.
Same read-out and setting: for C61A C70U the value was 1.28e-05 ± 2.9e-06 s⁻¹.
Consider G13U C16G, for which the kcat in the series with glucosamine-6-phosphate [1] amounted to 0.000981 ± 0.00012 s⁻¹. Moreover, in the series with glucosamine-6-phosphate [2], the Michaelis constant (KM) worked out at 5.17 ± 0.95 mM. Also, the “self-cleavage kobs at 640 uM GlcN6P” value with glucosamine-6-phosphate [3] came to 0.000112 ± 1.7e-05 s⁻¹. In addition, the “self-cleavage kobs at 2500 uM GlcN6P” value with glucosamine-6-phosphate [4] amounted to 0.000305 ± 6e-05 s⁻¹. In the series with glucosamine-6-phosphate [5], the “self-cleavage kobs at 10000 uM GlcN6P” value was 0.000653 ± 0.0001 s⁻¹.
Turning to G13U C16A, the kcat with glucosamine-6-phosphate [1] was 0.000283 ± 1.2e-05 s⁻¹. For the same variant, the Michaelis constant (KM) with glucosamine-6-phosphate [2] was determined as 4.34 ± 0.37 mM. The “self-cleavage kobs at 640 uM GlcN6P” value in the series with glucosamine-6-phosphate [3] was determined as 3.79e-05 ± 1.2e-05 s⁻¹. The “self-cleavage kobs at 2500 uM GlcN6P” value with glucosamine-6-phosphate [4] turned out to be 0.0001 ± 2.2e-05 s⁻¹. For the same variant, in the series with glucosamine-6-phosphate [5], the “self-cleavage kobs at 10000 uM GlcN6P” value was 0.000198 ± 2.6e-05 s⁻¹.
With G29U C67U, the turnover number (kcat) with glucosamine-6-phosphate [1] is 0.000984 ± 0.0002 s⁻¹. For the same variant, the KM in the series with glucosamine-6-phosphate [2] amounted to 1.05 ± 0.32 mM. In the series with glucosamine-6-phosphate [6], the “self-cleavage kobs at 40 uM GlcN6P” value was 4.55e-05 ± 8.7e-06 s⁻¹. For the same variant, the “self-cleavage kobs at 160 uM GlcN6P” value in the series with glucosamine-6-phosphate [7] came to 0.000126 ± 1.3e-05 s⁻¹. In the series with glucosamine-6-phosphate [3], the “self-cleavage kobs at 640 uM GlcN6P” value is 0.000384 ± 5.4e-05 s⁻¹. Besides, the “self-cleavage kobs at 2500 uM GlcN6P” value in the series with glucosamine-6-phosphate [4] was 0.000575 ± 8.5e-05 s⁻¹. In addition, the “self-cleavage kobs at 10000 uM GlcN6P” value in the series with glucosamine-6-phosphate [5] was found to be 0.0012 ± 0.00018 s⁻¹.
Turning to A39G C68A, the kcat with glucosamine-6-phosphate [1] was determined as 2.73e-05 ± 9.4e-06 s⁻¹.
As for A15G C67A C71U, the turnover number (kcat) with glucosamine-6-phosphate [1] was found to be 0.000877 ± 0.00033 s⁻¹. Further, the “self-cleavage kobs at 40 uM GlcN6P” value in the series with glucosamine-6-phosphate [6] was 7.86e-05 ± 1.3e-05 s⁻¹. Further, in the series with glucosamine-6-phosphate [3], the “self-cleavage kobs at 640 uM GlcN6P” value was 0.000523 ± 0.00013 s⁻¹. Besides, the “self-cleavage kobs at 2500 uM GlcN6P” value with glucosamine-6-phosphate [4] was 0.000455 ± 0.00016 s⁻¹. The “self-cleavage kobs at 10000 uM GlcN6P” value with glucosamine-6-phosphate [5] is 0.00139 ± 0.00024 s⁻¹.
As for A42G C70U, the catalytic constant (kcat) with glucosamine-6-phosphate [1] was 0.0228 ± 0.01 s⁻¹. For the same variant, the “self-cleavage kobs at 40 uM GlcN6P” value with glucosamine-6-phosphate [6] was 0.000696 ± 0.0001 s⁻¹. Moreover, the “self-cleavage kobs at 160 uM GlcN6P” value with glucosamine-6-phosphate [7] was 0.00157 ± 0.00029 s⁻¹. Besides, in the series with glucosamine-6-phosphate [3], the “self-cleavage kobs at 640 uM GlcN6P” value was found to be 0.00975 ± 0.0019 s⁻¹. The “self-cleavage kobs at 2500 uM GlcN6P” value in the series with glucosamine-6-phosphate [4] came out at 0.0261 ± 0.01 s⁻¹. In addition, in the series with glucosamine-6-phosphate [5], the “self-cleavage kobs at 10000 uM GlcN6P” value worked out at 0.0178 ± 0.0045 s⁻¹.
Regarding A12G G40U, in the series with glucosamine-6-phosphate [1], the turnover number (kcat) worked out at 0.000365 ± 1.8e-05 s⁻¹. Further, the KM with glucosamine-6-phosphate [2] is 3.74 ± 0.35 mM. In the series with glucosamine-6-phosphate [3], the “self-cleavage kobs at 640 uM GlcN6P” value was determined as 5.37e-05 ± 6.7e-06 s⁻¹. Also, the “self-cleavage kobs at 2500 uM GlcN6P” value with glucosamine-6-phosphate [4] stood at 0.000148 ± 1.3e-05 s⁻¹. Also, the “self-cleavage kobs at 10000 uM GlcN6P” value in the series with glucosamine-6-phosphate [5] amounted to 0.000265 ± 1.9e-05 s⁻¹.
With A52G C68U, in the series with glucosamine-6-phosphate [1], the catalytic constant (kcat) is 0.000874 ± 0.00036 s⁻¹. The “self-cleavage kobs at 40 uM GlcN6P” value in the series with glucosamine-6-phosphate [6] came to 2.35e-05 ± 7.7e-06 s⁻¹. Moreover, the “self-cleavage kobs at 160 uM GlcN6P” value with glucosamine-6-phosphate [7] stood at 9.18e-05 ± 1.1e-05 s⁻¹. The “self-cleavage kobs at 640 uM GlcN6P” value with glucosamine-6-phosphate [3] is 0.00015 ± 1.7e-05 s⁻¹. The “self-cleavage kobs at 2500 uM GlcN6P” value in the series with glucosamine-6-phosphate [4] came out at 0.000377 ± 4e-05 s⁻¹. Besides, the “self-cleavage kobs at 10000 uM GlcN6P” value with glucosamine-6-phosphate [5] was 0.000858 ± 9.2e-05 s⁻¹.
With G29U A52G, in the series with glucosamine-6-phosphate [1], the kcat is 0.00036 ± 7.1e-05 s⁻¹. In addition, in the series with glucosamine-6-phosphate [2], the KM was determined as 3.34 ± 1.2 mM. In addition, the “self-cleavage kobs at 640 uM GlcN6P” value with glucosamine-6-phosphate [3] was 6.73e-05 ± 9.7e-06 s⁻¹. In addition, the “self-cleavage kobs at 2500 uM GlcN6P” value with glucosamine-6-phosphate [4] came to 0.000127 ± 2e-05 s⁻¹. For the same variant, the “self-cleavage kobs at 10000 uM GlcN6P” value with glucosamine-6-phosphate [5] is 0.00029 ± 3.3e-05 s⁻¹.
Consider A15U G59A, for which the kcat with glucosamine-6-phosphate [1] stood at 1.53e-05 ± 4.8e-06 s⁻¹. Further, the “self-cleavage kobs at 40 uM GlcN6P” value with glucosamine-6-phosphate [6] is < 1e-05 s⁻¹.
G63A U69G: the kcat in the series with glucosamine-6-phosphate [1] worked out at 6.54e-05 ± 2.8e-05 s⁻¹. In the series with glucosamine-6-phosphate [7], the “self-cleavage kobs at 160 uM GlcN6P” value came out at 8.37e-05 ± 2.7e-05 s⁻¹. Besides, the “self-cleavage kobs at 640 uM GlcN6P” value with glucosamine-6-phosphate [3] was 0.000116 ± 3.3e-05 s⁻¹. Moreover, the “self-cleavage kobs at 2500 uM GlcN6P” value with glucosamine-6-phosphate [4] stood at 5.94e-05 ± 2.5e-05 s⁻¹.
